Target: T1, recombinant human IL-1 receptor extracellular domain (human, UniProt P14778 18-336)
T1 construct: extracellular domain; also called in-house mammalian recombinant IL-receptor extracellular domain
T1 sequence (looked up): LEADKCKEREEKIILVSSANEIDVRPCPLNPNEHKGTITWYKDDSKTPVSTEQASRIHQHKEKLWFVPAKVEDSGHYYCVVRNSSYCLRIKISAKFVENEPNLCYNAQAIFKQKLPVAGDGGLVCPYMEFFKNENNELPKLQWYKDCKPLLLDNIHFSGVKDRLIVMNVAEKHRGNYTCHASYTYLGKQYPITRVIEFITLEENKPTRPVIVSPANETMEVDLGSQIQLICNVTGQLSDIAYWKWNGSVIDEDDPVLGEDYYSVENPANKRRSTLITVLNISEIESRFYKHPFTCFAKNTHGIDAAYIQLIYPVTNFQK
Test: ELISA: test proteins coated on 96-well plate, IL-1 receptor extracellular domain incubated at 37 C, detected with rabbit anti human IL-1 receptor antibodies and goat anti rabbit HRP (FIG. 5)
Description: For IL-1 receptor binding assay, recombinant human IL-1 receptor extracellular domain was first produced in house using a mammalian host. TNFRII-Fc-IL-1ra, negative control TNFRII-Fc and positive control IL-1ra (KINERET) have been coated to 96-well plate. IL-1 receptor is then incubated at 37° C. for binding. The binding is detected using rabbit anti human IL-1 receptor extracellular domain antibodies, followed by goat anti rabbit […] conjugated with HRP.

B1: TNFRII-Fc (ENBREL) (Fc fusion, UniProt P20333 23-257, looked up)
chain: LPAQVAFTPYAPEPGSTCRLREYYDQTAQMCCSKCSPGQHAKVFCTKTSDTVCDSCEDSTYTQLWNWVPECLSCGSRCSSDQVETQACTREQNRICTCRPGWYCALSKQEGCRLCAPLRKCRPGFGVARPGTETSDVVCKPCAPGTFSNTTSSTDICRPHQICNVVAIPGNASMDAVCTSTSPTRSMAPGAVHLPQPVSTRSQHTQPTPEPSTAPSTSFLLPMGPSPPAEGSTGD
notes: Marketed product; also called marketed TNFRII-Fc (ENBREL); not shown: Fc part of the marketed product
  binding result: no binding

Reference: patent publication US7700318 (AMPROTEIN, dated 2010)
